pKd: −log10 of the molar value.

Among the targets are HLA-A*03:01; HLA-A*11:01; HLA-A*31:01; HLA-A*33:01; HLA-A*68:01; HLA-A*02:03.
Holding throughout (assay): IEDB peptide-MHC binding, purified MHC/competitive/radioactivity; filed as Kd, often an IC50 or EC50 that approximates it; ≥ and ≤ were set here for values at or beyond the usual limits of such assays
The mark [1] stands for this setting: source organism: Vaccinia virus WR.
The mark [2] stands for this setting: source organism: Dengue virus 1 Nauru/West Pac/1974.
Setting [3] is: source organism: Dengue virus 3 Martinique/1243/1999.
Setting [4] is: source organism: Dengue virus 4 Philippines/H241/1956.
[5] abbreviates: source organism: SARS coronavirus Tor2.
Where [6] appears, read: source organism: Dengue virus 1 Brazil/97-11/1997.
Setting [7] is: source organism: Dengue virus 2 Jamaica/1409/1983.
Where [8] appears, read: source organism: Vaccinia virus Copenhagen.
Where [9] appears, read: source organism: Lymphocytic choriomeningitis virus (strain Traub).

In general, pKd refers to the Kd on a negative log10 scale, so that one unit is a factor of ten. TSDSKSIENK: the negative logarithm of the Kd (pKd) was 4.98 in the assay with HLA-A*03:01 (setting [1]); 6.27 with HLA-A*11:01 (setting [1]); 4.84 in the assay with HLA-A*31:01 (setting [1]); not above 4.47 with HLA-A*33:01 (setting [1]); 6.43 with HLA-A*68:01 (setting [1]).
As for ILHVDNHIGI, the pKd with HLA-A*02:03 (source organism: Homo sapiens) was 7.95.
Consider VSQLAKRFSK, for which the pKd in the assay with HLA-A*11:01 (setting [2]) is 6.90.
Take TSPGEIKPK: the negative-log Kd (pKd) with HLA-A*03:01 (setting [1]) is not above 4.21; with HLA-A*11:01 (setting [1]), 5.98; in the assay with HLA-A*31:01 (setting [1]) it was not above 4.65; in the assay with HLA-A*33:01 (setting [1]) it was not above 4.11; with HLA-A*68:01 (setting [1]) it was 5.32.
Consider QMWSLMYFHR, for which the pKd in the assay with HLA-A*31:01 (setting [3]) was 8.85; with HLA-A*33:01 (setting [3]), 8.38.
Take HTSVSAKQLR: the pKd is 5.60 with HLA-A*03:01 (setting [1]); 6.56 with HLA-A*11:01 (setting [1]); 6.79 with HLA-A*31:01 (setting [1]); 5.94 with HLA-A*33:01 (setting [1]); 7.79 in the assay with HLA-A*68:01 (setting [1]).
Consider TMWHVTRGSV, for which the pKd with HLA-A*02:03 (setting [4]) is 7.61.
Take IVQMLSDTLK: the pKd was 6.53 with HLA-A*03:01 (setting [5]); 7.19 in the assay with HLA-A*11:01 (setting [5]); 5.42 with HLA-A*31:01 (setting [5]); not above 4.65 with HLA-A*33:01 (setting [5]); 5.93 in the assay with HLA-A*68:01 (setting [5]).
Consider QLEQPYVFIK, for which the pKd with HLA-A*03:01 (setting [5]) was 5.18; with HLA-A*11:01 (setting [5]), 5.52; with HLA-A*31:01 (setting [5]), 4.95; in the assay with HLA-A*33:01 (setting [5]), not above 4.15; in the assay with HLA-A*68:01 (setting [5]), 4.76.
On the same counts, the results for STSAFIDTIK are 5.96, 7.81, 5.06, not above 4.33 and 7.59.
In the case of DISEMGANFR, the pKd in the assay with HLA-A*33:01 (setting [6]) was 6.64; in the assay with HLA-A*68:01 (setting [6]), 7.89.
In the case of NTPECPSASR, the pKd with HLA-A*68:01 (setting [3]) was 8.32.
On to LMYFHRRDLR, for which the pKd in the assay with HLA-A*03:01 (setting [7]) is 6.85; with HLA-A*31:01 (setting [7]) it was 9.25; in the assay with HLA-A*33:01 (setting [7]), 7.76; in the assay with HLA-A*68:01 (setting [7]), 6.68.
For the sequence LTMFLITENK, the negative-log Kd (pKd) with HLA-A*03:01 (setting [2]) is 8.34; with HLA-A*11:01 (setting [2]), 7.52; with HLA-A*68:01 (setting [2]) it was 7.64.
Turning to FIDVHIPKFK, the pKd with HLA-A*03:01 (setting [1]) was 5.97; in the assay with HLA-A*11:01 (setting [1]) it was 6.75; with HLA-A*31:01 (setting [1]) it was 5.57; in the assay with HLA-A*33:01 (setting [1]), 4.88; in the assay with HLA-A*68:01 (setting [1]) it was 6.97.
In the case of KNGAIKVLR, in the assay with HLA-A*31:01 (setting [6]), the pKd is not above 4.29.
As to NIHTAITQVR, the pKd in the assay with HLA-A*68:01 (setting [4]) is 6.78.
In the case of VIYDSKFEK, the pKd with HLA-A*03:01 (setting [3]) is 7.19; with HLA-A*11:01 (setting [3]), 7.38.
For IFPANINDK, the pKd in the assay with HLA-A*03:01 (setting [1]) is 5.65; with HLA-A*11:01 (setting [1]), 5.96; with HLA-A*31:01 (setting [1]) it was 5.45; in the assay with HLA-A*33:01 (setting [1]), 4.90; in the assay with HLA-A*68:01 (setting [1]), 5.92.
As to EVGAIALDFK, the pKd with HLA-A*68:01 (setting [6]) is 7.81.
With LSIVVDINK, the negative logarithm of the Kd (pKd) in the assay with HLA-A*03:01 (setting [1]) is 5.29; with HLA-A*11:01 (setting [1]), 7.62; with HLA-A*31:01 (setting [1]), 5.38; with HLA-A*33:01 (setting [1]), not above 4.11; in the assay with HLA-A*68:01 (setting [1]), 7.82.
Regarding KLKHRDGFTK, the pKd was 7.43 in the assay with HLA-A*03:01 (setting [8]); 6.88 with HLA-A*11:01 (setting [8]); 6.14 in the assay with HLA-A*31:01 (setting [8]); not above 4.54 with HLA-A*33:01 (setting [8]); not above 4.41 in the assay with HLA-A*68:01 (setting [8]).
In the case of RLASAILNA, the pKd with HLA-A*02:03 (setting [4]) is 7.64.
As for NMTSRMLLNR, the pKd was 4.92 in the assay with HLA-A*31:01 (setting [6]), 7.13 in the assay with HLA-A*33:01 (setting [6]) and 6.33 in the assay with HLA-A*68:01 (setting [6]).
As for LLNRFTMAHR, the pKd with HLA-A*31:01 (setting [6]) is not above 4.31.
Consider MLNRVQILMK, for which the pKd in the assay with HLA-A*03:01 (setting [1]) is 8.89; in the assay with HLA-A*11:01 (setting [1]), 6.89; with HLA-A*31:01 (setting [1]), 6.21; with HLA-A*33:01 (setting [1]), 5.56; with HLA-A*68:01 (setting [1]) it was 6.16.
Consider LTALNDMGK, for which the figures for the negative logarithm of the Kd (pKd) in the assay with HLA-A*11:01 (setting [7]) and with HLA-A*68:01 (setting [7]) were 5.84 and 6.28, respectively.
As for SMFWDGMDY, the pKd in the assay with HLA-A*03:01 (setting [1]) is 8.99; in the assay with HLA-A*11:01 (setting [1]) it was 9.08; with HLA-A*31:01 (setting [1]) it was 6.91; with HLA-A*33:01 (setting [1]), 4.98; with HLA-A*68:01 (setting [1]), 7.92.
NTTYDFLARK: the pKd with HLA-A*03:01 (setting [1]) was 6.16; in the assay with HLA-A*11:01 (setting [1]), 7.50; in the assay with HLA-A*31:01 (setting [1]), 5.26; in the assay with HLA-A*33:01 (setting [1]), 5.35; with HLA-A*68:01 (setting [1]) it was 8.02.
KCHDHYLCR: the pKd with HLA-A*03:01 (setting [9]) was 5.12; in the assay with HLA-A*11:01 (setting [9]) it was 5.49; with HLA-A*31:01 (setting [9]) it was 6.96; with HLA-A*33:01 (setting [9]), 5.87; with HLA-A*68:01 (setting [9]), not above 4.32.
On to VSSVNTTSK, for which the pKd with HLA-A*11:01 (setting [4]) is 5.86.

The record behind these values is the Immune Epitope Database (IEDB).
